The nature of the series: soluble fraction after stress (log2 fold change); higher = more stays soluble; pooled small domains, quantitative proteomics. The following applies: stress: pH 4. In short, it runs like this: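 Values are on a log2 scale, where higher means more of the domain stayed soluble after pH 4 stress. They are fold changes in the soluble amount of each domain from pooled custom libraries, measured by high-throughput quantitative proteomics. The fold change is taken to reflect aggregation propensity.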
Regarding “HMRDLTARQQQILALIRQHIADTGFPPTRAEIAAQLGFRSPNAAEEHLKALARKGVIELASGASRGIRLK”, the “soluble fraction (log2)” value stood at 0.283.
Under “HMRDPFDALSARERAVASLVQRGLRNKEVASELGLTEGTVKVHLHKVFDKLGIRGRTELILLAQER” stands -0.397.
As for “HMRDQAIDIYKTVHSVAEPYKEVFLLRVLGELSFKEISHIFGKSESWAKVTFFRAKIKVVEKREES”, the “soluble fraction (log2)” value is -1.04.
Regarding “HMRDQQHNIYLLEKAKRLYEEFLGDNRHIIAAEMARFEAVLETQDAIIIQRAQQQFSEFLNRFDG”, the “soluble fraction (log2)” value is -1.2.
With “HMRDRYEYLKELRLYLSPLGRTEEDRVIEYYAELIGDKIESGIPENGVLSQLGTPRELADKILAETQEY” the figure was -0.384; with “HMRDSLVGLEGVVVREVDDETLAGKVQIGSMEWSARSESGRIPAGRRVVVLRAEGVHIVVKEV”, -0.121.
With “HMRDSWNEATKEKRYTEAYDALNSALKKTPATPHALSDALWIARELGRTNEEVQRLEWRLYALLTWIS” the figure was -0.0517.
With “HMRDTDAEVTYKLNEPFKTMGSVSVEGKVLEFAGSKWFARAAEFASNTEVYPLAKNRVRLTFTFHGLTAP” the figure was 0.0243; with “HMREEFIGVLDGKVAIFHGRPERKGPLKEVTAIEVDKLPRQEQADLEKGLVIRTDKEKLQLMEGLAALLD”, -0.171; with “HMREELIALYRAIARLSEDEQELLNLFYFARRPLSEIAQLTGMTPGAAKTRLYRARRHLRREMEEDGYG”, -0.653.
On to “HMREGLRHLRVRMPGGAGETLAMLYREGEVLSQSSDGAFIEVEIRVAQSVAGRLLQMPGVQLTEEVG”, for which the “soluble fraction (log2)” value was -0.871.
With “HMREGNELLGKEGVTVSELRPAGIALIDGRRTDVVTDGEFVAVDQAVEVVEVSGNRVVVRRS” the figure was 0.0769; with “HMREIDIWVAEDADSQRIDKYLSMVVEDLSRSRIASLIEGGSILVNGEVIRAKYKVKPADHITAAFEDEM”, -0.938; with “HMREIKSNEILLEVENLKNSEFFNDINFNIKKGEIVGFSGLIGAGRTELALTLFGYYKAESGKVIQ”, -0.291.
Under “HMREIRIIAEEGHGRLDAFLAGREELGLSRSRIKGLIEEGQVTLNGAVPKAKQPVSPGDEIVVSVPD” stands -0.0246.
On to “HMREKMKGKILDYNFQESRGIISADDGNRYSFENSQWKGTQSPKVNQIVDFEIDGQNAKDIYLDK”, for which the “soluble fraction (log2)” value was found to be 0.0691.
With “HMRESLSEAERHPRYLEGEDVVRMFLLMGDLSRVEAEVIALQWNAQEADRVGLPQDAKVFRTRAR” the figure was -0.417; with “HMREVDKRYYKINIAGTDRIFTNVYRVGDRYSAYEADKNGKPGKFLYSLSQAEIDRAVISGSFDFK”, 0.121; with “HMREVSPEDLALMRRIDAWHLEHPFAGARLLRDLLRPEGFQAGRRHIGTLMARMGIEALYRK”, -0.255.
Under “HMREYVGLSPFNKEKTPSFYVNDEKGQFFDFSSGKNGDLITFLQETERLTFMEAVERLAAEAGLPMPA” stands -0.617.
Turning to “HMRFANGHLIWDTIIELRNAERRINRRALADLTGLKPGVVDDHVERWIEKDQLRRAGNGELEVV”, the “soluble fraction (log2)” value was -0.24.
With “HMRFMRVSQSKSKNSTSLYIIESVYTKDNKHTTRIVKKLGTVEELSKEHEDPLAWAKEVAKQMTEEAEQN” the figure was -0.508; with “HMRFNIGNVIEHYKLNTEDLAKVLFPTVKYPKQAFDRVLKGEANLDVIQLERLANHIGVLVTDLF”, -0.659.
“HMRFQGKISDWNDEKGYGFVEPNGGGTRAFVHIKSFTDLPRRPINGDIIIYETTTDEKNRVQANNISFTR”: the “soluble fraction (log2)” value is -0.163.
For the sequence “HMRFSYLNIETRKDISSLINKSEITHSSYNNNEYLYKIKSKKTDDFKDLISLIDEKDLISYSIDS”, the “soluble fraction (log2)” value worked out at 0.258.
Under “HMRFTVSDKMDMLLKSLSAGQSMPFKSLFASASTKSEVIVTFLALLELMKLNQFVVWQDQILGEIEIERR” stands -0.162; under “HMRGDQLREHLLWTAKDVFLELGFERASMDAVAARAETSKRSLYAHFESKEKLFLAVIDLVRG”, -1.65.
With “HMRGESFSTLVSILQEMSARKAAQVLNGLSEGLAVEVLRALPSDVAGDILGRMDAAKAAALMEQLST” the figure was -0.9.
With “HMRGGLATLTPRERQVLALMAEGRSNAGIAAELVVSGGAVEKHVASIFTKLGLPPDESDNRRVLAVLRHLG” the figure was -0.186.
For the sequence “HMRGHASVEIKRIVYKYKLTDQELAKITGMKASDFPIYHDHLQLILPKRYWARVLDALQNYEKEHES”, the “soluble fraction (log2)” value was no less than 0.43.
With “HMRGINDLSLVDPQGRIRKDGEQYVVAFGRHKGKEISQIISQDPSYLNWLLSPKGIEDDATRELIRTQYS” the figure was -0.0946; with “HMRGPTIELLIQKSALYEELDDSENALKEILKAFDRDSLNSDVLNRLVNLLLNDKQIDRAENYNQLLIEK”, -0.847; with “HMRGPVRLDLPVSGLSRSSGPALAKILQAVPGVHKAHVNVRSGKATLEYDPARAKVTDFVEVIRSAGFGT”, -0.072.
Under “HMRGQGRILAMLKIQPEIATKDLAYLLGIRQQSLNELLKKLEKNSYVERRPSEKDRRVMVVHLTEKGKE” stands 0.0202; under “HMRGQLADLWLPREQARRAAEIVAARPVPLGSVKTWIARGKLAPRKTGTGPALYRVGALVSLLAKS”, 0.133.
For the sequence “HMRGVNEISYTTLISEVSGGNVRDVVISGDEITGTFNDGSRFHSFSPDDPQFIERLNDQGVIINVKPL”, the “soluble fraction (log2)” value was -0.904.
Consider “HMRHDSEGYYRLIGVPPDADDAELKEAAKKRLMEAHPDHGGSEDEFVEVYRAYRTLTDPSARAEYDARP”, for which the “soluble fraction (log2)” value was -0.133.
Consider “HMRHEDLSPAQKAAALVVAVGSENAAQVLRHLSEEEVEILAGEVARLGEVDPDVVDSVMREVYEQMMGH”, for which the “soluble fraction (log2)” value is -0.929.
Under “HMRHKSNRRLTAAHQIEQQIQKLLMENTMEAKELKESLNFAAKDIDTVLSWLVDKDKVRINAINQYYWT” stands -1.28; under “HMRHRITEKDKQFRIGQQVWHSEYGKGMVLSVDGIGSSARLTVSFVSGKLAKIIGTFVSTEP”, -0.982; under “HMRIETLESLANRLAYKAYRTGRKVELEPMNPFERRVIHTALQNSKYATTESEGEDMNRHIVIVPKEGG”, 0.247.
On to “HMRILGIDPGSVVTGYGVIDKSGNYLRHVLHGEIKPHKGYLLSEVLMDIFSKLSAVIVETNPQSV”, for which the “soluble fraction (log2)” value was 0.146.
Under “HMRINIVKSKNAEQLYIIHSYRINGKNTSKIYKKLGTMADLLPLHNHDRDQVLAWAKEQARLATEQYDQEN” stands 0.26; under “HMRIQLNFSDQLLDDVMSEALKHIDRKSQEHHIEKQMDDEFMLVYIDARLIIQVIVNIINNAIKY”, -0.912.
For “HMRITEGEIVEIQEGDNRALVGVGEKLEGIISLDEIRGADGKLLFNVGDKITVMVMGHYNERPK”, the “soluble fraction (log2)” value was -0.429.
With “HMRITRREQQVLHLLAMGMTTREIAGHINLTERTVRNRISNLRDKLGAQTASQLLAKAVAQGLIEP” the figure was 0.426; with “HMRIVSGRESMLGRTVVVADWAGERGHVVVDGERWNAVASTPLAAGRRARIVGIDGLTLSVSPDDKP”, 0.0452; with “HMRKAERHLLIKQVIDEFTIRTQEELLAKLSDYGVNATQATISRDIRDLKIVKAPDENGISRFVFF”, -0.358.
Under “HMRKGDDRLRAQVDEYISKQGNNTFNYKQVAHAINATSPISQRAVALYLAELAFDGDLLETAPGRYKSPSR” stands 0.191; under “HMRKIKDVLRLKLHAGLSHERVAASLNISKGVVAKYTSLAAAAGLDWPTVERLSEAALERRLV”, 0.22.

The record behind these values is the domain aggregation screens of Martell et al. (2025).
